Measured values reported in article PMC8253144 (mAbs, 2021).
Blank lines part the entries; values can stand above or below the binder they belong to.

Molecular target: recombinant human EPHA2 ectodomain (Homo sapiens, UniProt P29317)
Experiment: BLI

Chain of recombinant human EPHA2 ectodomain (P29317 24-537): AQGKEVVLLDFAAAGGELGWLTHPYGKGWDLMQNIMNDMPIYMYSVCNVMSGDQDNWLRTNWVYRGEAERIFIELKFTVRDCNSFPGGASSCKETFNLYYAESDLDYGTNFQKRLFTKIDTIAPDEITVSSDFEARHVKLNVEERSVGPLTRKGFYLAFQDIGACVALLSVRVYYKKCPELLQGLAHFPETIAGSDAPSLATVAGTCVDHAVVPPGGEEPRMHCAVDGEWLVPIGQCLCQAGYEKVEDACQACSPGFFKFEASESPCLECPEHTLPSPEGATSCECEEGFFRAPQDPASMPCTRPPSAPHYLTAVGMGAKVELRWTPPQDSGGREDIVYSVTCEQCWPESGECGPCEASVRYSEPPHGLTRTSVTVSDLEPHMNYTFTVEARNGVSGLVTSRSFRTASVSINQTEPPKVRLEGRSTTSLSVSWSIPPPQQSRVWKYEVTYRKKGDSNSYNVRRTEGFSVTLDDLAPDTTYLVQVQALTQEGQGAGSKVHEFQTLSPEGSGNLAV

binding result: binds
B1: anti-EPHA2 Fab A2-4 (Fab, V domains shown)
VH: EVQLVESGGGLVQPGGSLRLSCAASGFNISSYYMHWVRQAPGKGLEWVASISPSYSYTYYADSVKGRFTISADTSKNTAYLQMNSLRAEDTAVYYCARGWSFVGMDYWGQGTLVTVSS
VL: DIQMTQSPSSLSASVGDRVTITCRASQSVSSAVAWYQQKPGKAPKLLIYSASSLYSGVPSRFSGSRSGTDFTLTISSLQPEDFATYYCQQGAPWSPITFGQGTKVEIK

binding result: binds
B2: anti-EPHA2 Fab A2-3 (Fab, V domains shown)
VH: EVQLVESGGGLVQPGGSLRLSCAASGFNISYYYMHWVRQAPGKGLEWVASIYPSYSYTSYADSVKGRFTISADTSKNTAYLQMNSLRAEDTAVYYCARGGVVSWAHPAASYYVYGAMDYWGQGTLVTVSS
VL: DIQMTQSPSSLSASVGDRVTITCRASQSVSSAVAWYQQKPGKAPKLLIYSASSLYSGVPSRFSGSRSGTDFTLTISSLQPEDFATYYCQQAVWSGYPITFGQGTKVEIK
